Reference: PMC8457056, “Remodeling of the Fibrillation Pathway of α‐Synuclein by Interaction with Antimicrobial Peptide LL‐III” (Chemistry (Weinheim an Der Bergstrasse, Germany), 2021)
Where no end group is shown, it is not given here. carboxyfluorescein = carboxyfluorescein at the N-terminus

Biological target: α‐Synuclein (human, UniProt P37840 1-140)
Test: fluorescence polarisation
Conditions: both partners purified

| Binder | Ka |
| --- | --- |
| H-VNWKKILGKIIKVVK-NH2 [antimicrobial peptide LL‐III] | 37000 M⁻¹ |
| carboxyfluorescein-VNWKKILGKIIKVVK [carboxyfluorescein‐labeled LL‐III] | 19000 M⁻¹ |
